In PMC11592472 one finds EC50 of the cAMP response (HTRF) of transfected CHO-K1 cells stimulated with rec-eCG for 30 min data, which are given here for one substance.

In assay [1] the target is equine LH/CGR trileucine mutant eLH/CGR-AAA (equine).
In assay [2] the target is equine LH/CGR trileucine mutant eLH/CGR-ALL (equine).
Assay [3] concerns the target equine LH/CGR trileucine mutant eLH/CGR-LAL (equine).
In assay [4] the target is equine LH/CGR trileucine mutant eLH/CGR-LLA (equine).
The target of assay [5] is equine lutropin/choriogonadotropin receptor, wild type (eLH/CGR-wt) (equine).

In the case of “recombinant equine chorionic gonadotropin (rec-eCG) (from UniProt P01220 25-120; P08751 21-169) (ligand)”, the EC50 of the cAMP response (HTRF) of transfected CHO-K1 cells stimulated with rec-eCG for 30 min at room temperature came out at 0.0352 µg/mL in assay [1]; 0.0046 µg/mL in assay [2]; 0.0143 µg/mL in assay [3]; 0.0197 µg/mL in assay [4]; 0.0185 µg/mL in assay [5].
